Laboratory results taken from paper PMC8048842, “A Cyanine‐Bridged Somatostatin Hybrid Probe for Multimodal SSTR2 Imaging in Vitro and in Vivo: Synthesis and Evaluation” (Chembiochem, 2021).
Read-outs that look alike come from different tables or passages of the source.

How the values were obtained:
BON‐SSTR2 cells [1] = assay: Toxicity test, cell number (DAPI nuclei counting); assay type: cell-based, human; settings: 96 h treatment, up to a concentration of 10 μM, quadruplicates, n=2 (Figure S2)
Experimental: (§1) Toxicity tests: BON‐SSTR2 cells were seeded in quadruplicates in 96 well plates at a density of 5,000 cells per well and grown overnight. […] Metabolic activity and cell number were determined after another 96 h. For this, 100 μL medium containing AlamarBlue™ redox indicator (ThermoFisher) were added on top of each well, incubated for 3–4 h and the resulting fluorescence was measured using an EnVision Multilabel Plate Reader (PerkinElmer). Afterwards, the supernatant was removed; cells were fixated with 4 % v/v formaldehyde for 10 min and stained with 1 μg/mL DAPI in PBS/0.1 % v/v Triton for another 10 min. Four fields per well were imaged using an IN Cell Analyzer 1000 (GE Healthcare) with a 4x objective and nuclei were counted by Investigator software (GE Healthcare). All values were normalized to the control treated with vehicle and analyzed using GraphPad Prism 5.04.

BON‐SSTR2 cells [2] = assay: Toxicity test, metabolic activity (AlamarBlue); assay type: cell-based, human; settings: 96 h treatment, up to a concentration of 10 μM, quadruplicates, n=2 (Figure S2)
Experimental: as §1

[3] = biological target: T1, ratSSTR2‐GFP fusion protein (Rattus norvegicus, UniProt P30680); assay: Endocytosis / receptor internalization assay in RIN1038 cells; assay type: cell-based
T1 construct: expressed in transfected cells
Excerpt: Endocytosis assay: Rat insulinoma RIN1038 cells stably expressing a ratSSTR2‐GFP fusion protein almost exclusively show green cell membrane fluorescence in the resting state while in the presence of a functional agonist, the receptor‐GFP fusion protein is translocated to a perinuclear endocytic vesicle compartment. This shift is readily recognized by inspection of the fluorescent image and can be detected by software‐based quantitation algorithms. […] Mounted cells were imaged using a confocal laser‐scanning microscope (LSM510, Carl Zeiss) with a helium–neon laser at 488 and 543 nm, BP505‐525 and LP560 emission filters and a 63x NeoFluar oil immersion objective. […] For automated microscopy, microscopic fluorescence images were recorded by an IN Cell Analyzer 1000 (GE Healthcare) with 20x magnification at 5 frames per well in a 96 well format. Image processing was performed with In Cell Investigator software (GE Healthcare) applying the provided granularity algorithm. The output of the analysis was indicated as vesicle area/cell and was utilized for calculation of concentration‐response curves resulting in the determination of half‐maximal activity (EC50).

in vivo = settings: female, NMRI-Foxn1nu/Foxn1nu nude, mouse, iv, total radioactivity

T1 sequence (P30680 whole entry, the tested form may be a part): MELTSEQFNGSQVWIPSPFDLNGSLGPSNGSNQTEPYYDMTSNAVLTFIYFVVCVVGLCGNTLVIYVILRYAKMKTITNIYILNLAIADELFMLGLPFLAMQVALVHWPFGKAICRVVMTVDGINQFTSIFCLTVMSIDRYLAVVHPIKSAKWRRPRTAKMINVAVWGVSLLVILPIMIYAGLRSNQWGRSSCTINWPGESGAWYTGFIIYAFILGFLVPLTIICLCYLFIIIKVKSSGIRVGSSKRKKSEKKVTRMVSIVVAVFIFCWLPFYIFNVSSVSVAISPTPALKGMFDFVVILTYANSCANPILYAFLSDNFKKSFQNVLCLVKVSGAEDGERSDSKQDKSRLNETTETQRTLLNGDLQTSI

SMILES | inhibition of proliferation (cell count, DAPI, % control) (BON‐SSTR2 cells [1]) | inhibition of metabolism (AlamarBlue fluorescence, % control) (BON‐SSTR2 cells [2]) | EC50 ([3]; RIN1038-rSSTR2GFP, axis log DOTA-ICC-TATE [M], R square 0.9899, read-out: EC50 internalization as printed in Figure S2 D) | cellular uptake: colocalization of ICC dye signal with internalized GFP‐fused SSTR2 ([3]; RIN1038 cells overexpressing SSTR2‐GFP, 1 μM conjugate, 30 min, 37 °C, confocal microscopy) | EC50 ([3]; RIN1038 ratSSTR2‐GFP cells, eleven concentrations 3 pM–300 nM, 30 min, 37 °C, quadruplicates, vesicle area/cell, read-out: EC50 of SSTR2‐GFP fusion protein internalization) | tissue uptake at 1 h (in vivo; ex vivo biodistribution uptake in kidneys) | tissue uptake at 1 h (in vivo; ex vivo biodistribution uptake in liver)
C[C@@H](O)[C@H](NC(=O)[C@@H]1CSSC[C@H](NC(=O)[C@@H](Cc2ccccc2)NC(=O)c2ccc3c(c2)C(C)(C)/C(=C/C=C/C2=[N+](C)c4ccc(CNC(=O)CNC(=O)CN5CCN(CC(=O)O)CCN(CC(=O)O)CCN(CC(=O)O)CC5)cc4C2(C)C)N3CCCCS(=O)(=O)[O-])C(=O)N[C@@H](Cc2ccc(O)cc2)C(=O)N[C@H](Cc2c[nH]c3ccccc23)C(=O)N[C@@H](CCCCN)C(=O)N[C@@H]([C@@H](C)O)C(=O)N1)C(=O)O [DOTA‐ICC‐TATE] | does not inhibit | does not inhibit | 4.21e-10 M | clearly colocalized | 4.2e-10 M |  | 
C[C@@H](O)[C@H](NC(=O)[C@@H]1CSSC[C@H](NC(=O)[C@@H](Cc2ccccc2)NC(=O)c2ccc3c(c2)C(C)(C)/C(=C/C=C/C2=[N+](C)c4ccc(CNC(=O)CNC(=O)CN5CCN(CC(=O)O)CCN(CC(=O)O)CCN(CC(=O)O)CC5)cc4C2(C)C)N3CCCCS(=O)(=O)[O-])C(=O)N[C@@H](Cc2ccc(O)cc2)C(=O)N[C@H](Cc2c[nH]c3ccccc23)C(=O)N[C@@H](CCCCN)C(=O)N[C@@H]([C@@H](C)O)C(=O)N1)C(=O)O [^68Ga‐DOTA‐ICC‐TATE, metal not drawn] |  |  |  |  |  | ~30 %ID/g | 5 %ID/g
